Assay results as given in article PMC6248175.

Target: C3b (UniProt P01024)
Experiment: microplate/western blot assay; protocol 1, formation step: C3b-coated wells; FB 1,000 ng/ml, FD 10 ng/ml, 10 mM MgCl2, 100 ug/ml control or patients' IgGs, 12 min at 25 C, without or with FH 2,640 ng/ml during formation; density of the Bb band with FH over that without FH

ratio Bb band + FH / Bb band without FH (with FH-CSA+ C3NeF IgGs of patients): 0.58
ratio Bb band + FH / Bb band without FH (with FH-CSA- C3NeF IgGs of patients): 0.32
ratio Bb band + FH / Bb band without FH (with control IgGs): 0.32
Substance: factor H (from UniProt P08603 19-1231) (natural protein)
